From doi:10.1101/2022.12.06.519383

Target: ZIKV sE (strain PF13) (Zika virus, strain PF13)
Assay: SEC-MALS

ZIKV sE (strain PF13) (domain or fragment)
stoichiometry N: 2
